From patent publication US20190112349A1 (UNUM THERAPEUTICS, published 2019) come the findings set out here.

What all share (test): cell-based or functional assay
In experiment [1] the target is ACTR variant 131.
Experiment [2] has as its target ACTR variant 102.
For experiment [3], the target named is ACTR variant 1 (wild-type ACTR).
For experiment [4] the target is unchanged. This is another data set of the same source.
The target in experiment [5] is ACTR variant 93.
The target in experiment [6] is ACTR variant 127.
In experiment [7] the target is ACTR variant 94.
The target in experiment [8] is ACTR variant 103.
The target of experiment [9] is ACTR variant 26.

Like-named read-outs stand apart in the source and are kept apart here.

ACTR variant 131, sequence (chain, as listed by the source mutant limits assumed): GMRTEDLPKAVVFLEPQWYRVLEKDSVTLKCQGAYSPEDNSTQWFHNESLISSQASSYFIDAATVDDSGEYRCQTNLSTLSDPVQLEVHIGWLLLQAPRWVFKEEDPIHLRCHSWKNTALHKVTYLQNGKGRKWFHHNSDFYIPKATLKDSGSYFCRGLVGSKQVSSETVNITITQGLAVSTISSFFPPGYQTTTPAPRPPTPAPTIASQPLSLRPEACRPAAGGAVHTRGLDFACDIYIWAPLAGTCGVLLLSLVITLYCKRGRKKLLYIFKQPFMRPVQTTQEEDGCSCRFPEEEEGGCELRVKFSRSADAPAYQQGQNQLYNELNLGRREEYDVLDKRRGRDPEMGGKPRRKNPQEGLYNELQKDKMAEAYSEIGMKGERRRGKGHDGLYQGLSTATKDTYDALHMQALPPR
ACTR variant 102, sequence (chain, as listed by the source mutant limits assumed): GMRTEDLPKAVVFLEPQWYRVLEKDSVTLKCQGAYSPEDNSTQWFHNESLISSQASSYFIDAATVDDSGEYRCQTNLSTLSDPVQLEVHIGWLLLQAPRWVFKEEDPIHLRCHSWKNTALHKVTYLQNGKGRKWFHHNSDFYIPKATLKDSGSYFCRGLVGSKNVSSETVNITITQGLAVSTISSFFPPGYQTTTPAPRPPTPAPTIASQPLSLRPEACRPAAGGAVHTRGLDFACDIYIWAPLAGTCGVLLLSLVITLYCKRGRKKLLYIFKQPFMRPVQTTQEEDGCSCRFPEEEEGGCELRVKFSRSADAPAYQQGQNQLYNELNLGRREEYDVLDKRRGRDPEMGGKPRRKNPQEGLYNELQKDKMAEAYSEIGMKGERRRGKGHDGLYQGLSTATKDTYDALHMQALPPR

B1: Fc-enhanced anti-CD19 antibody (antibody, V domains shown)
VH: EVQLVESGGGLVKPGGSLKLSCAASGYTFTSYVMHWVRQAPGKGLEWIGYINPYNDGTKYNEKFQGRVTISSDKSISTAYMELSSLRSEDTAMYYCARGTYYYGTRVFDYWGQGTLVTVSS
VL: DIVMTQSPATLSLSPGERATLSCRSSKSLQNVNGNTYLYWFQQKPGQSPQLLIYRMSNLNSGVPDRFSGSGSGTEFTLTISSLEPEDFAVYYCMQHLEYPITFGAGTKLEIKR
Turning to B1, the “Jurkat NFAT luciferase EC50” value in experiment [1] is 2 nM; in experiment [2] it was 2.2 nM; in experiment [3], 0.26 nM.

B2: wild-type anti-BCMA antibody (antibody)
heavy: not shown
light: DIVLTQSPPSLAMSLGKRATISCRASESVTILGSHLIHWYQQKPGQPPTLLIQLASNVQTGVPARFSGSGSRTDFTLTIDPVEEDDVAVYYCLQSRTIPRTFGGGTKLEIKRTVAAPSVFIFPPSDEQLKSGTASVVCLLNNFYPREAKVQWKVDNALQSGNSQESVTEQDSKDSTYSLSSTLTLSKADYEKHKVYACEVTHQGLSSPVTKSFNRGEC
Regarding B2, the “Jurkat NFAT luciferase EC50” value in [4] was under 20 nM.

B3: afucosylated anti-BCMA antibody (antibody)
heavy: not shown
light: DIVLTQSPPSLAMSLGKRATISCRASESVTILGSHLIHWYQQKPGQPPTLLIQLASNVQTGVPARFSGSGSRTDFTLTIDPVEEDDVAVYYCLQSRTIPRTFGGGTKLEIKRTVAAPSVFIFPPSDEQLKSGTASVVCLLNNFYPREAKVQWKVDNALQSGNSQESVTEQDSKDSTYSLSSTLTLSKADYEKHKVYACEVTHQGLSSPVTKSFNRGEC
modifications: afucosylated Fc glycan
Turning to B3, the “Jurkat NFAT luciferase EC50” value is under 100 nM in experiment [5] and 1 nM in experiment [4].

B4: Fc-enhanced anti-BCMA antibody (S239D, I332E) (antibody)
heavy: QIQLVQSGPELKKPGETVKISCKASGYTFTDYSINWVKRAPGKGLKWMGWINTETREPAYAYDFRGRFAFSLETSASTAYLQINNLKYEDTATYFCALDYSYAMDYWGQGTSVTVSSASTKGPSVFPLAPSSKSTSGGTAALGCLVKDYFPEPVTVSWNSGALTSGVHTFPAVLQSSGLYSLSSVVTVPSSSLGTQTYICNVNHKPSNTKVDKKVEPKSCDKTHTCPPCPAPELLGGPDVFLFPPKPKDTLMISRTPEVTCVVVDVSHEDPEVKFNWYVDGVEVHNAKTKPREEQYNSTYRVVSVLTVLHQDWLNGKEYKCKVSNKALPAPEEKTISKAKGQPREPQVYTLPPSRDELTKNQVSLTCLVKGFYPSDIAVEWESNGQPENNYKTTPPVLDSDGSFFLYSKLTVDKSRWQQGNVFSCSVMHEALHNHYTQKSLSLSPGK
light: DIVLTQSPPSLAMSLGKRATISCRASESVTILGSHLIHWYQQKPGQPPTLLIQLASNVQTGVPARFSGSGSRTDFTLTIDPVEEDDVAVYYCLQSRTIPRTFGGGTKLEIKRTVAAPSVFIFPPSDEQLKSGTASVVCLLNNFYPREAKVQWKVDNALQSGNSQESVTEQDSKDSTYSLSSTLTLSKADYEKHKVYACEVTHQGLSSPVTKSFNRGEC
Turning to B4, the entries for the “Jurkat NFAT luciferase EC50” value in experiment [6], in [4] and in experiment [7] were under 100 nM, 0.83 nM and under 100 nM, respectively.

B5: afucosylated Fc-enhanced anti-BCMA antibody (S239D, I332E) (antibody)
heavy: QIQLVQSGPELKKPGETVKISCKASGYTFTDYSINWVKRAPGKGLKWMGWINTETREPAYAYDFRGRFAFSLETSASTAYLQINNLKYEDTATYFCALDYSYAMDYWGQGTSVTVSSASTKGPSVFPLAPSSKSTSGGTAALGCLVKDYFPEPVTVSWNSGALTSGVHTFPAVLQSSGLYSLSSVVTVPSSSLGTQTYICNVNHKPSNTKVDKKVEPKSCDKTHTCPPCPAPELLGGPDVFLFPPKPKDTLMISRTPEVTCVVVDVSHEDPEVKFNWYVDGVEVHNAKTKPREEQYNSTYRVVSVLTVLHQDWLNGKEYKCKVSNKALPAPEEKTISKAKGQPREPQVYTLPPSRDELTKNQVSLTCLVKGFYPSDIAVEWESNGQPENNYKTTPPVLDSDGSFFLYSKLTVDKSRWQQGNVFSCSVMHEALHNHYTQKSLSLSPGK
light: DIVLTQSPPSLAMSLGKRATISCRASESVTILGSHLIHWYQQKPGQPPTLLIQLASNVQTGVPARFSGSGSRTDFTLTIDPVEEDDVAVYYCLQSRTIPRTFGGGTKLEIKRTVAAPSVFIFPPSDEQLKSGTASVVCLLNNFYPREAKVQWKVDNALQSGNSQESVTEQDSKDSTYSLSSTLTLSKADYEKHKVYACEVTHQGLSSPVTKSFNRGEC
modifications: afucosylated Fc glycan
Take B5: the “Jurkat NFAT luciferase EC50” value is 8.44 nM in [8]; 2.26 nM in experiment [6]; under 5 nM in experiment [5]; 4.36 nM in experiment [9]; 0.17 nM in experiment [4]; 1.12 nM in experiment [7].
